Columns and labels:
[1] = biological target: mDR5ectm-td1, extracellular and transmembrane domains of murine DR5 fused to tetanus toxin fragment (mouse); experiment: flow cytometry on SKOV3 cells transfected with murine DR5 (mDR5ectm-td1)
[2] = biological target: full length wild type human DR5 (human) (UniProt O14763); experiment: cell-based or functional assay
Chain of UniProt O14763 (O14763 other isoform, or with tags, fused parts or gaps limits assumed): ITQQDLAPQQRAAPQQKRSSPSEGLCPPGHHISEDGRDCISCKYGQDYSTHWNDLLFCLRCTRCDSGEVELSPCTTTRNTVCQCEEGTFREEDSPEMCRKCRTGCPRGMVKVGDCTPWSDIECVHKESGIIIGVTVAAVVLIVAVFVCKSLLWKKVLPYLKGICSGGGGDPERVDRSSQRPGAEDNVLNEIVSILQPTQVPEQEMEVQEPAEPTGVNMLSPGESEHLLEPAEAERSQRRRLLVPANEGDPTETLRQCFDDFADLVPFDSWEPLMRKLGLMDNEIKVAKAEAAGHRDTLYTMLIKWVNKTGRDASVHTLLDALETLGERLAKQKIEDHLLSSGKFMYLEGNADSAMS

Substance | percent of cells stained [1] | growth inhibition of SUM159 cells (MTT) at 1 µg/mL antibody [2] | growth inhibition of SUM159 cells (MTT) at 2 µg/mL antibody [2] | growth inhibition of SUM159 cells (MTT) at 4 µg/mL antibody [2]
MD5-1, monoclonal antibody to mouse DR5 | 100% |  |  | 
human DR5 agonist monoclonal antibody mAb631 (clone 71903, MAB631; R&D Systems) |  | 36% | 55% | 65%

From patent US20120189572A1
